Test results published in paper PMC4190666.

Biological target: TAB1 (full length, 60-kDa isoform) (human (endogenous in primary CD4+ T cells)) (UniProt Q15750)
Assay: co-IP

Chain of UniProt Q15750 (Q15750 whole entry, canonical isoform): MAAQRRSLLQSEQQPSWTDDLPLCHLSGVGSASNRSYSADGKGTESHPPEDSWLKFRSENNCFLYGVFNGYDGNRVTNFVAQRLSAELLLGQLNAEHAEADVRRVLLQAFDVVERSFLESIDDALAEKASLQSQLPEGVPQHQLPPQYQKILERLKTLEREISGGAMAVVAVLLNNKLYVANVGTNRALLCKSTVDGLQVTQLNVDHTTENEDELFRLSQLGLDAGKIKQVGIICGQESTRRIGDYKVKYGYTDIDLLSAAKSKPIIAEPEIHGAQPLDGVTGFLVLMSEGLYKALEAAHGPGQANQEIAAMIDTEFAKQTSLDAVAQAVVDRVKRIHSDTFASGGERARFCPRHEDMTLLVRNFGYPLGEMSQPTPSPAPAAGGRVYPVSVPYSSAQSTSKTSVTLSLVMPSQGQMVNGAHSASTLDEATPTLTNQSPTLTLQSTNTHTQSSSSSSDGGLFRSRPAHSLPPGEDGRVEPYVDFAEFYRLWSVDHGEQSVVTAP

fold increase of p38 in TAB1 immunoprecipitates with A-769662 over DMSO control: 2.5 to 3 fold
Substance: p38 MAP kinase (total p38) (from UniProt Q16539 1-360) (enzyme)
